Measurements from the supplement of paper PMC9732359.
± gives the uncertainty stated by the source.

Assay: protein stability index of a GFP-peptide fusion (yeast GPS) (PSI 1-4); higher = more stable; sorted into four equal gates, so the index is relative within each strain
Summary of the method: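 Sequencing reads from sorted gates were used to score each peptide. The library consisted of tiled 17-residue yeast protein peptides fused downstream of GFP on a Cherry-expressing plasmid, pooled and carried in yeast. Mid-log cultures in leucine-free medium were split into four equal gates by GFP/Cherry ratio, and each gate's plasmids were PCR-amplified and Illumina-sequenced. The protein stability index adds up, over all gates, the read frequency multiplied by the gate number.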

| Sequence | protein stability index (doa10∆) | protein stability index (pdr5∆) | protein stability index (san1∆) | protein stability index (ubr1∆) |
| --- | --- | --- | --- | --- |
| SDDYDNEGAASSNPQSA [SMC1] | 2.91 ± 0.16 | 3.42 ± 0.13 | 2.65 ± 0.12 | 3.13 ± 0.051 |
| SFKYLSNNDEDDKDCTI [RGR1] | 2.51 ± 0.05 | 2.41 ± 0.04 | 2.18 ± 0.055 | 2.62 ± 0.034 |
| MEKESVYNLALKCAERQ [NUT1] | – | 2.1 ± 0.26 | 2.91 ± 0.21 | – |
| FLKEKDTVAELQAQLDY [FAS2] | 2.88 ± 0.091 | 3.07 ± 0.11 | 3.15 ± 0.051 | 3.02 ± 0.067 |
| FGQKGGQAIVVHPDYLY [FAS2] | 1.86 ± 0.046 | 1.62 ± 0.04 | 1.99 ± 0.06 | 1.68 ± 0.049 |
| SPIFEVLSDDAKKLSSF [ARP9] | 2.84 ± 0.062 | 3.19 ± 0.11 | 2.88 ± 0.058 | 3 ± 0.069 |
| TLAEVKAAGLTAAYART [RPL13A] | 1.38 ± 0.11 | 1.89 ± 0.097 | 1.5 ± 0.12 | 1.54 ± 0.061 |
| PGGILRAQHVKKLATRP [RPL34A] | 3.04 ± 0.24 | 3.39 ± 0.21 | 3.37 ± 0.16 | 3.02 ± 0.14 |
| NPNTNTNSNNTPLQSQL [PGD1] | 2.91 ± 0.071 | 2.96 ± 0.066 | 2.88 ± 0.058 | 2.98 ± 0.07 |
| IEKCLKASELKLALGIA [RPN2] | 2.75 ± 0.1 | 3.1 ± 0.13 | 3 ± 0.098 | 2.69 ± 0.24 |
| LPYLSDTCAVSFDAVSD [YJR042W/NUP85] | 2.44 ± 0.1 | 2.63 ± 0.059 | 2.55 ± 0.078 | 2.87 ± 0.05 |
| IPVGLMAQENSMERKVQ [MCD1] | – | 3.38 ± 0.29 | – | 3.19 ± 0.1 |
| NSAIANEQEEKSEEVKA [RPC37] | 2.61 ± 0.08 | 2.79 ± 0.11 | 2.61 ± 0.055 | 2.62 ± 0.08 |
| MSTFIFPGDSFPVDPTT [RRP40] | 2.17 ± 0.11 | 2.06 ± 0.092 | 2.35 ± 0.068 | 2.35 ± 0.074 |
| DFELAVGKVMNKNQETA [RPT6] | 2.37 ± 0.21 | – | – | – |
| NVDKNLNEIKEHKIVVL [RPN14] | 2.39 ± 0.085 | 2.38 ± 0.069 | 2.42 ± 0.1 | 2.74 ± 0.1 |
| SEAKRTKFSNPAIPPVI [BRR2] | 2.13 ± 0.06 | 2.25 ± 0.054 | 2.45 ± 0.067 | 2.44 ± 0.056 |
| LSHYIRQCFQDNCCDFK [MED1] | 2.78 ± 0.045 | 2.75 ± 0.052 | 2.94 ± 0.05 | 2.83 ± 0.032 |
| PTGPKTAIDKNGNITYS [FAS2] | 2.9 ± 0.061 | 3.08 ± 0.057 | 3 ± 0.059 | 2.91 ± 0.057 |
| NSYQPSPFFVLDEVDAA [SMC1] | 2.6 ± 0.12 | 2.57 ± 0.12 | 2.49 ± 0.12 | 2.77 ± 0.087 |
| NNAKLLTFMTCNSLHIP [ESC2] | 1.71 ± 0.046 | 1.72 ± 0.052 | 1.6 ± 0.079 | 2.06 ± 0.047 |
| KPLFDFGKTGDQKETKK [YOR098C/NUP1] | 3.3 ± 0.12 | 3.6 ± 0.19 | 2.79 ± 0.22 | 3.34 ± 0.082 |
| PSLRDRRERRLIFGTIA [RPT3] | 1.41 ± 0.08 | 2.04 ± 0.099 | 1.63 ± 0.079 | 1.85 ± 0.07 |
| YKNLDRGFSKDLKSKAD [RRP6] | 3.05 ± 0.1 | 3.27 ± 0.15 | 3.31 ± 0.065 | 3.53 ± 0.099 |
| LKREERQGLIHQGSGGS [SMC3] | – | 3.52 ± 0.1 | – | – |
| DRMDVDEDESQNIAQSS [HRT1] | 2.37 ± 0.072 | 2.66 ± 0.062 | 2.21 ± 0.051 | 2.43 ± 0.05 |
| IKRMAIRNIVEAAAVRD [RPS26A] | 1.29 ± 0.069 | 1.68 ± 0.097 | 1.83 ± 0.16 | 1.93 ± 0.055 |

| Sequence | protein stability index (doa10∆) | protein stability index (pdr5∆) | protein stability index (san1∆) | protein stability index (ubr1∆) |
| --- | --- | --- | --- | --- |
| EFIAHRLGLIPLQSMDI [RPB3] | 2.69 ± 0.13 | 2.04 ± 0.17 | 1.92 ± 0.23 | – |
| QMIELNRQICLVQKTVQ [GRR1] | 3.03 ± 0.1 | 2.56 ± 0.055 | 2.5 ± 0.063 | 2.09 ± 0.055 |
| KNTQSPQTPLVEPVTER [SNU114] | – | 2.87 ± 0.15 | 2.72 ± 0.097 | 3.01 ± 0.13 |
| FEKNTILQQRSKINSTE [MED4] | 2.79 ± 0.073 | 3.07 ± 0.084 | 2.81 ± 0.07 | 3.15 ± 0.086 |
| IKPKPLWSGKQILSVAI [RPO21] | 1.62 ± 0.056 | 1.53 ± 0.047 | 1.4 ± 0.073 | 1.62 ± 0.064 |
| NDLVKARDLLDDLEKTL [RPN9] | 2.97 ± 0.092 | 3.43 ± 0.097 | 3.12 ± 0.091 | 3.15 ± 0.087 |
| PVIDTQIANEFNTQQGI [YDL116W/NUP84] | 2.77 ± 0.051 | 2.99 ± 0.057 | 2.79 ± 0.042 | 2.95 ± 0.047 |
| TPDANLISKPAKKNNFI [UBP6] | 3.12 ± 0.16 | 3.05 ± 0.1 | 3.15 ± 0.12 | 3.21 ± 0.12 |
| SQVLDLAKKIAPGKVEL [SMC2] | – | 3.28 ± 0.19 | – | 2.84 ± 0.2 |
| MVLFNIYDDWLDRISSY [PRP8] | 2.26 ± 0.054 | 2.47 ± 0.046 | 2.19 ± 0.075 | 2.26 ± 0.045 |
| FKAMEDVIAWKNVLANS [ITC1] | – | 2.95 ± 0.16 | 3.55 ± 0.078 | 3.49 ± 0.16 |
| TVIEGVKEESQPDENTK [SWI3] | 3.13 ± 0.17 | 3.28 ± 0.15 | 2.74 ± 0.12 | 3 ± 0.089 |
| AKRVENFNSSAPIADDN [DSN1] | 3.19 ± 0.084 | 3.32 ± 0.075 | 2.9 ± 0.1 | 3.43 ± 0.059 |
| ARCYRYQKNKPYPKSRY [RPL10] | 2.3 ± 0.064 | 2.38 ± 0.065 | 2.41 ± 0.055 | 2.77 ± 0.057 |
| KISLRDICLKLNLDSEQ [RPN3] | 3.46 ± 0.12 | 3.34 ± 0.093 | – | 3.32 ± 0.11 |
| SNTTTQIQFTPLIKKIK [SMC3] | 2.2 ± 0.088 | 2.46 ± 0.045 | 2.71 ± 0.095 | 2.37 ± 0.07 |
| NNLFRIIAELSFLKVDP [YJL039C/NUP192] | 3.08 ± 0.054 | 3.02 ± 0.12 | 3.24 ± 0.093 | 3.07 ± 0.086 |
| GIRIKGKIVGFDEFMNV [SME1] | 3.15 ± 0.068 | 2.96 ± 0.098 | 3.23 ± 0.076 | 3.12 ± 0.099 |
| YDLMAPNGHISTKKIQV [YMR129W/POM152] | 2.15 ± 0.08 | 2.06 ± 0.07 | 1.5 ± 0.085 | 1.94 ± 0.05 |
| NNNNTTTTTTTTNNNNT [SWI1] | 3.07 ± 0.031 | 2.68 ± 0.032 | 3.363 ± 0.023 | 3.128 ± 0.02 |
| GFETSKNIKIIMATNRL [RPT6] | 2.87 ± 0.15 | 2.54 ± 0.084 | 2.36 ± 0.066 | 3.28 ± 0.063 |
| NEKLECISLGSTKLSRP [ITC1] | 2.25 ± 0.064 | 2.64 ± 0.052 | 2.44 ± 0.047 | 2.47 ± 0.057 |
| MSKITSSQVREHVKELL [RPL1A] | 1.59 ± 0.092 | 2.09 ± 0.065 | 2.45 ± 0.093 | 1.99 ± 0.051 |
| ESKSLLNLFSNVLKAPF [SIR4] | 2.39 ± 0.086 | 2.16 ± 0.13 | 1.56 ± 0.21 | 2.48 ± 0.077 |
| SSDGQLKKFRESLVHSA [BRR2] | 3.41 ± 0.15 | 3.25 ± 0.23 | 3.22 ± 0.16 | 3.33 ± 0.13 |
| KNNLLIPDLSIQNDIYL [RPN12] | 2.93 ± 0.046 | 3.02 ± 0.038 | 2.98 ± 0.035 | 2.92 ± 0.047 |
| MEKKKSSSLSLESFMKS [SNM1] | 1.84 ± 0.04 | 1.91 ± 0.045 | 2.62 ± 0.06 | 2.04 ± 0.04 |
